Experiment: yeast display, Sf9 membrane polyspecificity reagent, FACS + sequencing; frameworks hold sequencing errors
Outline: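 Sorting gates, low and high (top ~1%), were placed on anti-HA fluorescence to track expression and on streptavidin fluorescence to track reagent binding. A clone's polyreactivity label is taken from the gate it came out of. The reagent was 10% biotinylated, detergent-solubilized Sf9 membrane, applied for 1 hour at 4 °C to galactose-induced yeast display cells.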

Sequence: QVQLVESGGGLVQAGGSLRLSCAASGSTIFGNVMGWYRQAPGKERELVAVITNRGGSTYYADSVKGRFTISRDNAKNTVYLQMNSLTPEDTAVYYCNARPLYHFWYYSGEEYGYWGQGTQVSVSS
- polyreactivity (PSR sort gate): high polyreactivity

Sequence: QVQLVESGGGLVQAGGSLRLSCAASGRIFKLYARGWYRQAPGKERELVAAITSGGRTNYADSVKGRFTISRDNAKNTVYLQMNSLKPEDTAVYYCAARYYIVSLGSGYWGQGTQVTVSS
- polyreactivity (PSR sort gate): high polyreactivity

Sequence: QVQLVESGGGLVQAGGSLRLSCAASGRTFRYYAMGWYRQAPGKERELVAAIDTSSGSTYYADSVKGRFTISRDNAKNTVYLQMNSLKPEDTAVYYCNATWWIPLIYDYWGQGTQVNVSS
- polyreactivity (PSR sort gate): low polyreactivity

Sequence: QVQLVESGGGLVQAGGSLRLSCAASGSTFSNNAMGWYRQAPGKERELVAAITRRGTSTYYADSVKGRFTISRDNAKNTVYLQMISLKPEDTAVYYCAAVYKLRHKRPSYGSWGQGTQVTVSS
- polyreactivity (PSR sort gate): high polyreactivity

Sequence: QVQLVETGGGLVQAGGSLRLSCAASGSTFESNTMGWYRQAPGKERELVAAISYSGGRTYYADSVKGRFTISRDNAKNTVYLQMNSLKPEDTAVYYCAARWSVSYQYWGQGSQVTVSS
- polyreactivity (PSR sort gate): high polyreactivity

Sequence: QVQLVESVGGLVQAGGSLRLSCAASGFTFDYYSMGWYRQATGKERELVAAITTAGSTNYADSVKGRFTISRDNAKNTVSLQINSLKPEDTAVYYCAAYWWPWDISWDDYWGQGTQVNVSS
- polyreactivity (PSR sort gate): high polyreactivity

Sequence: QVQLVESGGRLVQAVGSLRLSCAASGRTFEYYNMGWYRQEPGKEREFVAANTWGGGSTSYADSVKGRFTISRDNAKNTVYLQMNSLKPEDTAVYYCAADDVYYDDDYWGQGTQVTVSS
- polyreactivity (PSR sort gate): high polyreactivity

Sequence: QVKLVESGGGLVQAGGSLRISCAASGRIFKIYAMGWYRQAPGKERELVAAISRGGRTYYADSVKGRFTISRDNAKNTVDLQMNSLKPEDTEVYYCAADLLISPEFYYWGQGTQVTVSS
- polyreactivity (PSR sort gate): high polyreactivity

Sequence: QVQLVESGGGLVQAGGSLRLSCAASGRISAYNAMGWYRQAPGKERELVAGISTRTGSTYYADSVKGRFTISRDNAKNTVYLQMNSLKPEDTAVYYCAAYFWGVYFFGMDYWGQGTQVTVSS
- polyreactivity (PSR sort gate): low polyreactivity

Sequence: QVQLVESGGGLVQAGGSLRLSCAASGIILYPNAMVWYRQAPGKERELVAGITRSGVSTYYADSVKGRFTISRDNAKNTVYLQMNSLNPEDTAVYYCAKDRIYGSKGEDDDYWGQGTQVTVSS
- polyreactivity (PSR sort gate): low polyreactivity

Sequence: HVQLEESGGGLVQAGGSLRLTCAASGSIFYAYAMGWYIPATGKERELVAVISNGGGSTYYADSVKGRFTISRDNSKNSVYLQMNSVKPEDTAVYFCAAVLAESVYYSDYDYWGQGTQVTVSS
- polyreactivity (PSR sort gate): low polyreactivity

Sequence: QVQLVESGGGLVQAGGSLRLSCAASGITFGDYAMGWDRQAPGKERELVAAISTSGVRTYYADSVKGRFTISRDNAKNTVYLQMNSLKPEDTAVYYCNARDYSGFQTGASAAFDYWGQGTQVTVSS
- polyreactivity (PSR sort gate): low polyreactivity

Sequence: QVQLVESGGGLVQAGGSLRLSCAASGSTFQFNVMGWYRQAPGKERELVAAITSGASTYYADSVKGRFTISRDNAKNTVYLQMNSLEPVDTAVYYWAVDYSFRYDYVQRYYYWGQGTQVTVSS
- polyreactivity (PSR sort gate): high polyreactivity

Sequence: QVQLVESGGGLVQAGGSLRLSCAASGYTFYVYAMGWYRQAPGTERELVADISTSDGSTYYADSVKGRFTISRDNAKNTVYLQMNSLKPEDTAVYYCNTDGSHGLYDWFWPANNDYWGQGTQVTVSS
- polyreactivity (PSR sort gate): low polyreactivity

Sequence: QVQLVESGGGLVQAGGSLRLSCAASGRIFGRYAMGWYRQAPGKERELVAAISVSGGSTYYADSVKGRFTISRDNAKNTVYLQMNSLKPEDTAVYYCATEWRPRYYGTEPFDSWGQGTQVTVSS
- polyreactivity (PSR sort gate): high polyreactivity

Sequence: QVQLVESGGGLVLAGGSLRLSCAASGSMFGGYAMGWYLQSPGKERELVAAISYRGASTYYADSVKGRFTISRDNAKNTVYLQMNSVKPEDTAVYYCAVAARTRDRVLYGYDYWGQGTQVTVSS
- polyreactivity (PSR sort gate): low polyreactivity

Sequence: QVQLVESGGGLVQAGGSLRLSCAASGSTLFGYAMGWYRQAPGKEREFVAAISRSGGRTYYADSVKGRFTISRDNAKNTVYLQMNSLKPEDTAVYYCATVRRRLSLTYDYWGQGTQVTVSS
- polyreactivity (PSR sort gate): high polyreactivity

Reference: the nanobody polyreactivity screen of Harvey et al. (2022)
